The assay has as its target OFA alone (control OFA construct, not fused to a chemoattractant) (murine, UniProt P14206 1-295). Briefly: ligand binding-internalization assay on iDC, flow cytometry (data not shown). The method, then: The ligand binding-internalization assays were performed with iDC or splenocytes (1×10⁵) blocked with mouse serum in PBS containing 2% BSA. Fusion proteins (10-50 μg/ml) were incubated in complete medium for Ih at 37° C. or at 4° C. To detect bound proteins, the cells were incubated with anti-c-myc mAb or isotype-matched, purified mouse IgG1, followed with α-mouse Ig-FITC mAb incubation (Jackson ImmunoResearch Laboratory, Bar Harbor, Me.) for 20 min each, and then fixed with 1% paraformaldehyde. The binding-internalization was assessed via flow cytometry on a FACScan (Becton Dickinson, Franklin Lakes, N.J.) using CellQuest software.
A general note: A flow cytometer gives signals particle by particle.

B1: CCR6 expressed on murine BM iDC (receptor)
chain: MNSTESYFGTDDYDNTEYYSIPPDHGPCSLEEVRNFTKVFVPIAYSLICVFGLLGNIMVVMTFAFYKKARSMTDVYLLNMAITDILFVLTLPFWAVTHATNTWVFSDALCKLMKGTYAVNFNCGMLLLACISMDRYIAIVQATKSFRVRSRTLTHSKVICVAVWFISIIISSPTFIFNKKYELQDRDVCEPRYRSVSEPITWKLLGMGLELFFGFFTPLLFMVFCYLFIIKTLVQAQNSKRHRAIRVVIAVVLVFLACQIPHNMVLLVTAVNTGKVGRSCSTEKVLAYTRNVAEVLAFLHCCLNPVLYAFIGQKFRNYFMKIMKDVWCMRRKNKMPGFLCARVYSESYISRQTSETVENDNASSFTM
notes: whole, on cells
In the case of B1, the binding result is recorded as “no binding”.

Values taken from patent US20090068234A1 (US Dept. of Health and Human Services, published 2009).
